# Test results from article PMC3799427 (Nucleic Acids Research, 2013).
# Key:
# [1] = biological target: T1, DNA polymerase III α subunit (Escherichia coli, UniProt P10443 1-1160); assay: single molecule DNA stretching
# [2] = biological target: T1, DNA polymerase III α subunit; assay: other fluorescence titration
# T1 sequence (P10443 whole entry): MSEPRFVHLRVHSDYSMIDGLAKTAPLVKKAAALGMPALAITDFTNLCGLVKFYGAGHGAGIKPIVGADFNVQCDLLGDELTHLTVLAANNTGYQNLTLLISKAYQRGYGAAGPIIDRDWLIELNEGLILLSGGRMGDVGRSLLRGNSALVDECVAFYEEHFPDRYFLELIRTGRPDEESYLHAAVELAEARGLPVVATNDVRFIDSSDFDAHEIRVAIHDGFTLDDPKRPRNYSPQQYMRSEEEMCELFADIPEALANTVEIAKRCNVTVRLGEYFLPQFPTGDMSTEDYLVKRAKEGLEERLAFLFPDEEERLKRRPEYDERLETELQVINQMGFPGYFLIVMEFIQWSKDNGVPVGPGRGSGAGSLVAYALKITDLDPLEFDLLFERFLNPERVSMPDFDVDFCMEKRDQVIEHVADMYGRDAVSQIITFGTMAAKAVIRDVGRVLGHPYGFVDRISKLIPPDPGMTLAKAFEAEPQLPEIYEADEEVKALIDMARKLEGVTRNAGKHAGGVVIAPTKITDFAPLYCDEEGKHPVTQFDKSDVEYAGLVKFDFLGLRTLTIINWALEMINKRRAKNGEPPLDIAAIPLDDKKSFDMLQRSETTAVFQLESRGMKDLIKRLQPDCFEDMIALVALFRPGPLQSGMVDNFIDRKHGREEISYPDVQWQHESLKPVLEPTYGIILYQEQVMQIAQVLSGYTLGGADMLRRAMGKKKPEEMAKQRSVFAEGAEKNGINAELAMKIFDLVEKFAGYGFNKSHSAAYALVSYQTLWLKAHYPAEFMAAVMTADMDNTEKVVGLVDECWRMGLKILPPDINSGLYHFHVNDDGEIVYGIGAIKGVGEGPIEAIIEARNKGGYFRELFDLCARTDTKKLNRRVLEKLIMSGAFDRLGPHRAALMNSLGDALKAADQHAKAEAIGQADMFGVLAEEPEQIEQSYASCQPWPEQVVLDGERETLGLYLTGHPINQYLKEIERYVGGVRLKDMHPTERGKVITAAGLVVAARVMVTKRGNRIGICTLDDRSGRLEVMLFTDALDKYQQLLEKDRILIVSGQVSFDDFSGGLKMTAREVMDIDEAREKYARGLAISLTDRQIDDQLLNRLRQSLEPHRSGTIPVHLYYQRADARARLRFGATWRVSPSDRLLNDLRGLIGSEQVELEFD
Kd [1] [µM],Kd [2] [µM],Binder
0.34 ± 0.103,–,"UmuD, wild type (natural protein, Escherichia coli, UniProt P0AG11 1-139, looked up) MLFIKPADLREIVTFPLFSDLVQCGFPSPAADYVEQRIDLNQLLIQHPSATYFVKASGDSMIDGGISDGDLLIVDSAITASHGDIVIAAVDGEFTVKKLQLRPTVQLIPMNSAYSPITISSEDTLDVFGVVIHVVKAMR"
–,18.1,"UmuD D91K (natural protein, Escherichia coli, UniProt P0AG11 1-139, looked up) MLFIKPADLREIVTFPLFSDLVQCGFPSPAADYVEQRIDLNQLLIQHPSATYFVKASGDSMIDGGISDGDLLIVDSAITASHGDIVIAAVKGEFTVKKLQLRPTVQLIPMNSAYSPITISSEDTLDVFGVVIHVVKAMR"
–,32.5,"UmuD D91K-G92K (natural protein, Escherichia coli, UniProt P0AG11 1-139, looked up) MLFIKPADLREIVTFPLFSDLVQCGFPSPAADYVEQRIDLNQLLIQHPSATYFVKASGDSMIDGGISDGDLLIVDSAITASHGDIVIAAVKKEFTVKKLQLRPTVQLIPMNSAYSPITISSEDTLDVFGVVIHVVKAMR"
–,1.3,"UmuD G92K (natural protein, Escherichia coli, UniProt P0AG11 1-139, looked up) MLFIKPADLREIVTFPLFSDLVQCGFPSPAADYVEQRIDLNQLLIQHPSATYFVKASGDSMIDGGISDGDLLIVDSAITASHGDIVIAAVDKEFTVKKLQLRPTVQLIPMNSAYSPITISSEDTLDVFGVVIHVVKAMR"
